Assay [1] concerns the target mouse mitochondrial RNA polymerase (Polrmt), wild type (mouse, UniProt Q8BKF1 42-1207). The experiment in a line: MST.
The target in assay [2] is mouse Δ320-Polrmt (N-terminal truncation mutant lacking the amino-terminal 320 amino acids) (mouse, UniProt Q8BKF1 321-1207). In words: MST.
mouse Δ320-Polrmt (N-terminal truncation mutant lacking the amino-terminal 320 amino acids), sequence (Q8BKF1 321-1207, stated change not applied): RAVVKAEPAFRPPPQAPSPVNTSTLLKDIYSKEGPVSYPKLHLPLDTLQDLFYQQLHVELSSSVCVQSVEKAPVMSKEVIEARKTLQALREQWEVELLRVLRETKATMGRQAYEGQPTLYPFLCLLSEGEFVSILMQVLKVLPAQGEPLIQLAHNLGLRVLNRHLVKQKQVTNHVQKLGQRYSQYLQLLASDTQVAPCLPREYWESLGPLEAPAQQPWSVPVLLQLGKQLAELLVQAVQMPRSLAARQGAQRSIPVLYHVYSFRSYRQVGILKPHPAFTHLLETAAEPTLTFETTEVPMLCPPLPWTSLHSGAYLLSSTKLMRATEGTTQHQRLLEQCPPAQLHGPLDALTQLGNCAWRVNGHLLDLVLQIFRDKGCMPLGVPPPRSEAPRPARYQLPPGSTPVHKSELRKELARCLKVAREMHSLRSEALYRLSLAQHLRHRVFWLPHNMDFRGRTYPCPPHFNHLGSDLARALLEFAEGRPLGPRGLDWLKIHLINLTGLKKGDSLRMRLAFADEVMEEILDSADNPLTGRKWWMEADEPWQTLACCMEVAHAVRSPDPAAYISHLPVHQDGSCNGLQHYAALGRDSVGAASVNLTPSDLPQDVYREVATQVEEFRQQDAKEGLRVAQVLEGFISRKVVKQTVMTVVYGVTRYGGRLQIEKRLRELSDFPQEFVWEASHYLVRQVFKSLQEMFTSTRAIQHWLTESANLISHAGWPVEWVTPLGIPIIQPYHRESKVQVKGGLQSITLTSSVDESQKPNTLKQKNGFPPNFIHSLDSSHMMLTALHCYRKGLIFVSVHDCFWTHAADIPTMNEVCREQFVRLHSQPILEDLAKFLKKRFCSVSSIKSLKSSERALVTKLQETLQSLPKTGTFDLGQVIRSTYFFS

mouse mitochondrial RNA polymerase (Polrmt), wild type, sequence (Q8BKF1 42-1207): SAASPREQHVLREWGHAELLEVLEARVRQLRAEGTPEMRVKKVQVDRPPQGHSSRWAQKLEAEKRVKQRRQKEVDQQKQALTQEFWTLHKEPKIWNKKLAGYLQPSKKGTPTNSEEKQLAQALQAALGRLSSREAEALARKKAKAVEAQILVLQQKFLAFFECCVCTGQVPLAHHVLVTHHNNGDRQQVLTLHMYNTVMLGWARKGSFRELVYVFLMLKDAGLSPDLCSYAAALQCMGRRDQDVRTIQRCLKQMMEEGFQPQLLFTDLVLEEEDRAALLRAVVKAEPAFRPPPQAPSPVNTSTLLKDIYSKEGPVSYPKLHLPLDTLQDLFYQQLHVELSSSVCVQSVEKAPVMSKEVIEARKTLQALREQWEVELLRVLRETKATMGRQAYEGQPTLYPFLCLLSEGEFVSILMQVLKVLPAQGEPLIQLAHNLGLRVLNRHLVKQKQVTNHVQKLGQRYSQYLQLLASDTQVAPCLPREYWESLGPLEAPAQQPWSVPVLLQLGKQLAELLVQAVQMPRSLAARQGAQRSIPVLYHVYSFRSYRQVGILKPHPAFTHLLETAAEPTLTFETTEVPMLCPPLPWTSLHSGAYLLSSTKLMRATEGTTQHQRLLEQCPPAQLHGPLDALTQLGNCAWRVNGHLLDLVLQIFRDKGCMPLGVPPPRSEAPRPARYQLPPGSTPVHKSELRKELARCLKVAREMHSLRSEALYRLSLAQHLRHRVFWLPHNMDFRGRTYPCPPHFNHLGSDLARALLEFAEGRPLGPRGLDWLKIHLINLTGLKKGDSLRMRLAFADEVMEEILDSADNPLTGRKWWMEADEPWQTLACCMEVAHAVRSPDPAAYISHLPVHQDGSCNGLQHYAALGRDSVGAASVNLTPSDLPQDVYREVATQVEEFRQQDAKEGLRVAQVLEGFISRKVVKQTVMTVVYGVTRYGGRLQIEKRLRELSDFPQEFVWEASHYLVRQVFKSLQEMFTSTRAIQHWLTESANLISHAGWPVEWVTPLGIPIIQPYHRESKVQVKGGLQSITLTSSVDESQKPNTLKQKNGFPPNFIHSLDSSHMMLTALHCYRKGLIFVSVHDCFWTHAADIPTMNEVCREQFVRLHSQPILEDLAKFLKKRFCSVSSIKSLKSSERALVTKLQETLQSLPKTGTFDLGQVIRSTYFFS

B1: mouse mitochondrial transcription factor B2 (Tfb2m) (natural protein, UniProt Q3TL26 44-396, looked up)
chain: SDFNIEPLPDSDLEESSPWTSRNRSEPTRHIACKKAARNLVRDLLEHQNPSRQIILECNPGPGILTGALLKAGARVVAFESEKTFIPHLEPLQRNMDGELQVVHCDFFKMDPRYQEVVRPDVSSQAIFQNLGIKAVPWSAGVPIKVFGILPYKHERRILWKILFDLYSCESIYRYGRVELNMFVSEKEFRKLIATPKRPDLYQVMAVLWQVACDVKFLHMEPWSSFSVHTENGHLEKSKHGESVNLLKQNLYLVRMTPRRTLFTENLSPLNYDIFFHLVKHCFGKRNAPIIRHLRSLSTVDPINILRQIRKNPGDTAARMYPHDFKKLFETIEQSEDSVFKWIYDYCPEDMEF
modifications: amine-labelled with NT-647 dye
As to B1, the Kd in assay [1] came out at 105 ± 1.2 nM; in assay [2], 49.4 ± 1.1 nM.

For orientation: Kd means the free concentration of one partner at which half of the binding sites on the other are occupied at equilibrium, for simple one-to-one binding.

Source of the values: publication PMC3973307 (Nucleic Acids Research, 2014).
